Experimental data published in PMC4445638 (2015).
Each block holds one binder with its values, some of them ahead of it.

Target: T1, DLL4 N-EGF2 (Rattus norvegicus, UniProt D3ZHH1)
T1 chain: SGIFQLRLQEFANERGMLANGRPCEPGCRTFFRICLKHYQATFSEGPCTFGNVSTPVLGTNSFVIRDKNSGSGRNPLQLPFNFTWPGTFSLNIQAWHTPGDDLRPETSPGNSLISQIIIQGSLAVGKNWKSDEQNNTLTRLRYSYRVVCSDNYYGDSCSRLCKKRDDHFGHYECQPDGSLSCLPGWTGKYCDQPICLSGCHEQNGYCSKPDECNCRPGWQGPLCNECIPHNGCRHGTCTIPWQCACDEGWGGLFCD
Assay: SPR

- Kd: 12.7 µM
B1: Notch1 EGF1-14 (peptide)
chain: MPRLLAPLLCLTLL

- Kd: 8.6 µM
B2: Notch1 EGF10-14 (peptide)
chain: CLTLL

- Kd: 7.5 µM
B3: Notch1 411-530 (protein)
chain: QDVDECALGANPCEHAGKCLNTLGSFECQCLQGYTGPRCEIDVNECISNPCQNDATCLDQIGEFQCICMPGYEGVYCEINTDECASSPCLHNGRCVDKINEFLCQCPKGFSGHLCQYDVD
